The source of these data is US20210179728A1 (OSE IMMUNOTHERAPEUTICS, published 2021).

Test [1] has as its target T1, recombinant hSIRPa (Sino Biologicals, reference 11612-H08H) (human, UniProt P78324 31-370).
T1 construct: also called SIRPa-His; human SIRPa-His; not shown: His tag (histidine tail)
As to the kind of experiment: ELISA on immobilized SIRPa-His, peroxidase anti-human IgG, DO 450nm [panel OX40L]. The method, then: (§1) Method: For ELISA assay, recombinant hSIRPa (Sino Biologicals, Beijing, China; reference 11612-H08H) was immobilized on plastic at 0.5 μg/ml in carbonate buffer (pH9.2) and different modified anti-SIRPa antibodies were added to measure binding to SIRPa.
In general terms: In an ELISA, binding on a coated surface is turned into a signal by an enzyme label.

The target of another test is T2, OX40Fc (human, UniProt P43489 29-216).
T2 construct: not shown: Fc; not specified
T2 sequence (looked up): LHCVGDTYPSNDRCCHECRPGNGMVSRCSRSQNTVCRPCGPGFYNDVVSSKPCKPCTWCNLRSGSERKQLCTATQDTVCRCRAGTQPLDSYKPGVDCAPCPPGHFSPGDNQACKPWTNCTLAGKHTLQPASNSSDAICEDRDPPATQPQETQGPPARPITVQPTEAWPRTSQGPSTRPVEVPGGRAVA
As to the kind of experiment: ELISA: modified antibody (concentration on the axis) captured on SIRPa-His, then OX40Fc, detected with mouse anti-human OX40 [panel OX40L]. The source says:
(§2) FIG. 24. Ligand binding assay with the different modified anti-SIRPa antibodies by ELISA.

The target of test [2] is T1, recombinant hSIRPa (Sino Biologicals, …). As to the kind of experiment: competition ELISA on coated SIRPa-His; competitor biotinylated CD47-Fc at 6 ug/ml, streptavidin-peroxidase [panel CD86]. Here is the method:
(§3) Method: For competitive ELISA assay, recombinant hSIRPa (Sino Biologicals, Beijing, China; reference 11612-H08H) was immobilized on plastic at 0.5 μg/ml in carbonate buffer (pH9.2).

The target is the same in test [3]. As to the kind of experiment: ELISA on immobilized SIRPa-His, peroxidase anti-human IgG, DO 450nm [panel CD86]. The method, then: as §1
In another test the target is T3, CTLA4-Fc (human, UniProt P16410 36-161, limits assumed).
T3 construct: not shown: Fc; not specified
As to the kind of experiment: ELISA: modified antibody (concentration on the axis) captured on SIRPa-His, then CTLA4-Fc, detected with mouse anti-human CTLA4 [panel CD86].
Text: as §2

Test [4] has as its target T1, recombinant hSIRPa (Sino Biologicals, …). As to the kind of experiment: ELISA on immobilized SIRPa-His, anti-human detection, DO 450nm [B,C, panel B table].
Test [5] has the same target. As to the kind of experiment: ELISA on immobilized hSIRPa-His, anti-human IgG detection, second experiment; second experiment. Here is the method:
(§4) Method: The binding activity of the anti-SIRPa antibodies was assessed by ELISA.

The target of test [6] is T4, recombinant hSIRPb-His (Antibodies-online, reference ABIN3077231) (human, UniProt Q5TFQ8 30-371).
T4 construct: also called SIRPb-His (Blitz); not shown: His tag
As to the kind of experiment: BLI (Blitz); SIRPb-His on Ni-NTA biosensor, antibody at 20 ug/ml [B, table A]. The method, then:
FIG. 7. (A) Affinity analysis by Blitz of anti-SIRP antibodies on human SIRPb recombinant protein. SIRPb-His recombinant protein was immobilized onto a NINTA biosensor and the indicated antibodies were added at 20 μg/ml. […] (B) Binding analysis of anti-SIRP antibodies (human SIRPb-His coating and anti-human kappa detection).
(§5) Method: This method was performed with a Blitz (Forte Bio; USA; reference C22-2 No 61010-1). Recombinant hSIRPb-His (Antibodies-online; USA; reference ABIN3077231) was immobilized at 10 μg/ml by histidine tail into a Ni-NTA biosensor (Forte Bio; USA; reference 18-0029) for 30 seconds. Then, an anti-SIRPa antibody was associated at 20 μg/mL for 120 seconds. The dissociation of anti-SIRPa antibody was made in kinetics buffer for 120 seconds. Analysis of data was made with the Blitz pro 1.2 software, which calculated association constant (ka) and dissociation constant (kd) and determined the affinity constant KD […].

The target of test [7] is T1, recombinant hSIRPa (Sino Biologicals, …). As to the kind of experiment: ELISA on immobilized hSIRPa-His, anti-human IgG detection, first experiment; first experiment. Here is the method:
as §4

Test [8] has the same target. As to the kind of experiment: competition ELISA on immobilized SIRPa-His; competitor biotinylated CD47-Fc at 6 ug/ml, streptavidin-peroxidase [second experiment table]. The method, then:
as §3

The target is the same in test [9]. As to the kind of experiment: SPR (Biacore); SIRPa-His immobilized on CM5 chip, antibody injected. Here is the method: FIG. 2. Affinity analysis by Biacore of anti-SIRP antibodies on human SIRPa recombinant protein. SIRPa-His recombinant protein was immobilized onto a CM5 chip at 5 μg/ml (500 RU) and the indicated antibodies were added at different concentration.
Method: Recombinant hSIRPa (Sino Biologicals, Beijing, China; reference 11612-H08H) was immobilized into a CM5 sensor chip (GeHealthcare; France) at 5 μg/ml (500 RU) and antibodies were applied at different concentrations with a flow rate of 40 μl/min. Analysis was performed with a BIAcore 3000 (Biacore, GeHealthcare).
(In general: Surface plasmon resonance follows binding to a sensor surface in real time, without labels.)

In test [10] the target is T5, recombinant hSIRPg-His (Sino Biologicals, reference 11828-H08H) (human, UniProt Q9P1W8 29-360).
T5 construct: also called human SIRPg-His; not shown: His tag
As to the kind of experiment: BLI (Blitz); SIRPg-His on Ni-NTA biosensor, antibody at 10 ug/ml or 20 ug/ml (Example 9) [B, table A]. Here is the method:
FIG. 8. (A) Affinity analysis by Blitz of anti-SIRP antibodies on human SIRPg recombinant protein. SIRPg-His recombinant protein was immobilized onto a NINTA biosensor and the indicated antibodies were added at 10 μg/ml. […] (B) Binding analysis by ELISA assay of anti-SIRP antibodies on SIRPg (human SIRPg-His coating and anti-human kappa detection).
as §5, with “hSIRPg-His (Sino Biologicals, Beijing, China;” for “hSIRPb-His (Antibodies-online; USA;”, “11828-H08H)” for “ABIN3077231)”

For test [11], the target named is T1, recombinant hSIRPa (Sino Biologicals, …). As to the kind of experiment: ELISA on immobilized hSIRPa-His, anti-human IgG detection, third experiment. The method, then:
as §4

Substitutions are numbered along the chain they refer to. Names and notes keep the numbering of the source.

B1: modified anti-SIRPa HEFLB antibody with ECD of OX40L on the light chain (antibody, human IgG4 S228P, kappa)
heavy: not shown
light: DVVMTQSPLSLPVTLGQPASISCRSSQSLVHSYGNTYLYWFQQRPGQSPRLLIYRVSNRFSGVPDRFSGSGSGTDFTLKISRVEAEDVGVYYCFQGTHVPYTFGGGTKVEIKRTVAAPSVFIFPPSDEQLKSGTASVVCLLNNFYPREAKVQWKVDNALQSGNSQESVTEQDSKDSTYSLSSTLTLSKADYEKHKVYACEVTHQGLSSPVTKSFNRGECGGGGSGGGGSGGGGSQVSHRYPRIQSIKVQFTEYKKEKGFILTSQKEDEIMKVQNNSVIINCDGFYLISLKGYFSQEVNISLHYQKDEEPLFQLKKVRSVNSLMVASLTYKDKVYLNVTTDNTSLDDFHVNGGELILIHQNPGEFCVL
notes: as m32, ECD of OX40L; also called VH+VLprot (OX40L); HEF + LB-OX40L
As for B1, the binding result (in test [1]; with OX40Fc) was “binds” in each case.

B2: modified anti-SIRPa HEFLB antibody with ECD of CD86 on the light chain (antibody, human IgG4 S228P, kappa)
heavy: not shown
light: DVVMTQSPLSLPVTLGQPASISCRSSQSLVHSYGNTYLYWFQQRPGQSPRLLIYRVSNRFSGVPDRFSGSGSGTDFTLKISRVEAEDVGVYYCFQGTHVPYTFGGGTKVEIKRTVAAPSVFIFPPSDEQLKSGTASVVCLLNNFYPREAKVQWKVDNALQSGNSQESVTEQDSKDSTYSLSSTLTLSKADYEKHKVYACEVTHQGLSSPVTKSFNRGECGGGGSGGGGSGGGGSAPLKIQAYFNETADLPCQFANSQNQSLSELVVFWQDQENLVLNEVYLGKEKFDSVHSKYMGRTSFDSDSWTLRLHNLQIKDKGLYQCIIHHKKPTGMIRIHQMNSELSVLANFSQPEIVPISNITENVYINLTCSSIHGYPEPKKMSVLLRTKNSTIEYDGVMQKSQDNVTELYDVSISLSVSFPDVTSNMTIFCILETDKTRLLSSPFSIELEDPQPPPDH
notes: as m32, ECD of CD86; also called VH+VLprot (CD86); HEF + LB-CD86
For orientation: EC50 (read off the curve) means the concentration that produces a half-maximal response. In the case of B2, the “IC50 (read off the curve)” value in test [2] is ~200 ng/mL. For the same molecule, in test [3], the “EC50 (read off the curve)” value was ~8 ng/mL. The binding result with CTLA4-Fc is listed as “binds”.

B3: modified anti-SIRPa HEFLB antibody with ECD of CD86 on the heavy chain (antibody, human IgG4 S228P, kappa)
heavy: not shown
light: DVVMTQSPLSLPVTLGQPASISCRSSQSLVHSYGNTYLYWFQQRPGQSPRLLIYRVSNRFSGVPDRFSGSGSGTDFTLKISRVEAEDVGVYYCFQGTHVPYTFGGGTKVEIKRTVAAPSVFIFPPSDEQLKSGTASVVCLLNNFYPREAKVQWKVDNALQSGNSQESVTEQDSKDSTYSLSSTLTLSKADYEKHKVYACEVTHQGLSSPVTKSFNRGEC
notes: as m25, ECD of CD86; also called VHprot+VL (CD86); VH-CD86
With B3, the “IC50 (read off the curve)” value in test [2] is ~200 ng/mL. The “EC50 (read off the curve)” value in [3] is ~9 ng/mL. The binding result with CTLA4-Fc is “binds”.

B4: HELA (antibody, V domains shown)
VH: EVQLVQSGAEVKKPGESLRISCKASGYSFTSYWVHWVRQMPGKGLEWMGNIDPSDSDTHYSPSFQGHVTLSVDKSISTAYLQLSSLKASDTAMYYCVRGGTGTLAWFAYWGQGTLVTVSS
VL: DVVMTQSPLSLPVTLGQPASISCRSSQSLVHSYGNTYLYWYQQRPGQSPRLLIYRVSNRFSGVPDRFSGSGSGTDFTLKISRVEAEDVGVYFCFQGTHVPYTFGGGTKVEIK
notes: also called humanized 18D5 variant HELA
Usually EC50 stands for the concentration at which the effect is half-maximal. Turning to B4, in [4], the EC50 came to 4.61 ng/mL.

B5: HCLA (antibody, human IgG4 S228P, kappa, V domains shown)
VH: B4 VH with L104M
VL: DVVMTQSPLSLPVTLGQPASISCRSSQSLVHSYGNTYLYWYQQRPGQSPRLLIYRVSNRFSGVPDRFSGSGSGTDFTLKISRVEAEDVGVYFCFQGTHVPYTFGGGTKVEIKR
notes: humanized 18D5 variant; also called humanized 18D5 variant HCLA
As for B5, the EC50 in test [5] came out at 5.6 ng/mL.

B6: chimeric mouse/human 18D5 antibody (antibody, human IgG4 S228P, kappa)
heavy: not shown
light: DVVMTQTPLSLPVSLGDQASISCRSSQSLVHSYGNTYLYWYLQKPGQSPKLLIYRVSNRFSGVPDRFSGSGSGTDFTLKISRVEAEDLGVYFCFQGTHVPYTFGSGTKLEIKRTVAAPSVFIFPPSDEQLKSGTASVVCLLNNFYPREAKVQWKVDNALQSGNSQESVTEQDSKDSTYSLSSTLTLSKADYEKHKVYACEVTHQGLSSPVTKSFNRGEC
notes: mouse variable domains on human IgG4m (S228P) / kappa constant domains; also called chimeric antibody; chimeric 18D5
Broadly, the Kd is a measure of binding affinity in units of concentration. As usually defined, the koff is the first-order rate constant of dissociation. The term kon denotes the rate constant with which the complex forms. For orientation: IC50 means the concentration that inhibits the measured activity by half. In the case of B6, the Kd in [6] came to 15.7 nM; in [9] it was 0.344 nM; in [10], 64.8 nM. The koff was determined as 0.00138 s⁻¹ in test [6], 5.14e-05 s⁻¹ in [9] and 0.00319 s⁻¹ in test [10]. For the same molecule, the kon in test [6] was found to be 88400 M⁻¹ s⁻¹; in test [9] it was 149000 M⁻¹ s⁻¹; in test [10] it was 49300 M⁻¹ s⁻¹. For the same molecule, the EC50 worked out at 2.9 ng/mL in test [7], 4.06 ng/mL in test [5] and 2.74 ng/mL in [11]. The IC50 in [8] was found to be 304 ng/mL.
